For two substances, Kd results are on record in article doi:10.1101/2024.11.22.622898.

This test deals with Retromer (recombinant trimer) (human) (UniProt Q96QK1). The experiment in a line: ITC. A general note: ITC needs no label: the signal is the heat of the interaction.

For orientation: Kd means the free concentration of one partner at which half of the binding sites on the other are occupied at equilibrium, for simple one-to-one binding. “recombinant full-length human TBC1D13 (from UniProt Q9NVG8 1-400) (natural protein)”: the Kd came to 6.3 µM.

For DENND4C peptide 1189-1206, the dissociation constant Kd is 15.4 µM.
